The test concerns the target IL-12 receptor β1 (IL-12Rβ1) (human, UniProt P42701 24-662). Put plainly: cell-based or functional assay.

Substitutions are numbered along the chain they refer to. In names and notes the source's numbering stands.

B1: wild-type (WT) IL-12 (ligand)
chain 1: IWELKKDVYVVELDWYPDAPGEMVVLTCDTPEEDGITWTLDQSSEVLGSGKTLTIQVKEFGDAGQYTCHKGGEVLSHSLLLLHKKEDGIWSTDILKDQKEPKNKTFLRCEAKNYSGRFTCWWLTTISTDLTFSVKSSRGSSDPQGVTCGAATLSAERVRGDNKEYEYSVECQEDSACPAAEESLPIEVMVDAVHKLKYENYTSSFFIRDIIKPDPPKNLQLKPLKNSRQVEVSWEYPDTWSTPHSYFSLTFCVQVQGKSKREKKDRVFTDKTSATVICRKNASISVRAQDRYYSSSWSEWASVPCS
chain 2: RNLPVATPDPGMFPCLHHSQNLLRAVSNMLQKARQTLEFYPCTSEEIDHEDITKDKTSTVEACLPLELTKNESCLNSRETSFITNGSCLASRKTSFMMALCLSSIYEDLKMYQVEFKTMNAKLLMDPKRQIFLDQNMLAVIDELMQALNFNSETVPQKSSLEEPDFYKTKIKLCILLHAFRIRAVTIDRVMSYLNAS
Regarding B1, the “EC50 of STAT4 phosphorylation in human NK cells (flow cytometry, FIG. 3A)” value was 0.0408 µg/mL and the “EC50 of STAT4 phosphorylation in human NK cells (flow cytometry, FIG. 3B)” value stood at 0.0574 µg/mL.

B2: H216A/K219A IL-12 (IL-12p40 HK219 with WT IL-12p35) (ligand)
chain 1: B1 chain 1 with H194A, K197A
chain 2: B1 chain 2
B2: the “EC50 of STAT4 phosphorylation in human NK cells (flow cytometry, FIG. 3B)” value was 0.29 µg/mL.

B3: IL-12 H216A/K217A/K219A triple mutant (HKK) (ligand)
chain 1: B1 chain 1 with H194A, K195A, K197A
chain 2: B1 chain 2
For the molecule B3, the “EC50 of STAT4 phosphorylation in human NK cells (flow cytometry, FIG. 3A)” value turned out to be 0.839 µg/mL.

Values taken from patent US20240342246A1 (YALE UNIVERSITY, published 2024).
